Results as given in paper PMC2686270.

Target: 6xHis-SpaK G392A (C-terminal half of SpaK) (Bacillus subtilis)

autophosphorylation restored by combining the two SpaK mutants, each inactive alone (intermolecular complementation; 32P-ATP, SDS-PAGE and autoradiography, Fig. 5B lane 6) (% of wild type): 25
Substance: 6xHis-SpaK H247Q (C-terminal half of SpaK) (domain or fragment)
